# According to patent US20230192896A1 (published 2023):
# Changes are numbered by the printed parent chain.
# B1: BIIB-9-606 (antibody, V domains shown)
# VH: QVQLVQSGAEVKKPGASVKVSCKASGYTFTSYYMHWVRQAPGQGLEWMGIINPSGGSTSYAQKFQGRVTMTRDTSTSTVYMELSSLRSEDTAVYYCARTKWSSSPYGMDVWGQGTTVTVSS
# VL: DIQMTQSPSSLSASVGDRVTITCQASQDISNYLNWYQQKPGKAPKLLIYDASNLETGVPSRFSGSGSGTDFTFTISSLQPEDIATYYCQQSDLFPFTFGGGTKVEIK
# B2: BIIB-9-582 (antibody, V domains shown)
# VH: B1 VH with H35V, T99A, K100P, W101T, S102Y, S103F, S104Y, P105S
# VL: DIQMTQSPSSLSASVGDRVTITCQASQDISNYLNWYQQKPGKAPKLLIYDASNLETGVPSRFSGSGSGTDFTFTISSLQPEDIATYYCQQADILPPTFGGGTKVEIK
# B3: BIIB-9-465 (antibody, V domains shown)
# VH: QVQLVQSGAEVKKPGASVKVSCKASGYTFTSYYMVWVRQAPGQGLEWMGIINPSGGSTSYAQKFQGRVTMTRDTSTSTVYMELSSLRSEDTAVYYCARSPTDGYYFDLWGRGTLVTVSS
# VL: DIQMTQSPSTLSASVGDRVTITCRASQSINSWLAWYQQKPGKAPKLLISDASSLESGVPSRFSGSGSGTEFTLTISSLQPDDFATYYCQQYEIFPFTFGGGTKVEIK
# B4: BIIB-9-470 (antibody, V domains shown)
# VH: EVQLVESGGGLVQPGGSLRLSCAASGFTFSSYWMSWVRQAPGKGLEWVANIKQDGSEKYYVDSVKGRFTISRDNAKNSLYLQMNSLRAEDTAVYYCARDAGIAWALDYWGQGTLVTVS
# VL: DIQMTQSPSTLSASVGDRVTITCRASQSISSWLAWYQQKPGKAPKLLIYKASSLESGVPSRFSGSGSGTEFTLTISSLQPDDFATYYCQHPHSWTFGGGTKVEIK
# B5: BIIB-9-611 (antibody, V domains shown)
# VH: QVQLVQSGAEVKKPGASVKVSCKASGYTFTSYYMHWVRQAPGQGLEWMGIINPSGGSTSYAQKFQGRVTMTRDTSTSTVYMELSSLRSEDTAVYYCAREVISRVSYFDLWGRGTLVTVSS
# VL: EIVMTQSPATLSVSPGERATLSCRASQSVSSNLAWYQQKPGQAPRLLIYGASTRATGIPARFSGSGSGTEFTLTISSLQSEDFAVYYCQQDNIHPYTFGGGTKVEIK
# B6: BIIB-9-460 (antibody, V domains shown)
# VH: QVQLVQSGAEVKKPGASVKVSCKASGYTFTSYYMHWVRQAPGQGLEWMGIINPSGGSTSYAQKFQGRVTMTRDTSTSTVYMELSSLRSEDTAVYYCARDISTDGESSLYYYMDVWGKGTTVTVSS
# VL: B5 VL with D91H, N92D, I93N, H94F, Y96F
# B7: BIIB-9-415 (antibody, V domains shown)
# VH: B5 VH with E99D, V100G, I101L, R103S, V104G, S105Y, F107W, L109N, R112Q
# VL: DIQMTQSPSSVSASVGDRVTITCRASQGIDSWLAWYQQKPGKAPKLLIYAASSLQSGVPSRFSGSGSGTDFTLTISSLQPEDFATYYCQQGDAFPFTFGGGTKVEIK
# B8: BIIB-9-1284 (antibody, V domains shown)
# VH: QVQLVQSGAEVKKPGASVKVSCKASGYTFTSYYMVWVRQAPGQGLEWMGIINPSGGSTSYAQKFQGRVTMTRDTSTSTVYMELSSLRSEDTAVYYCARVPTYRYSYLAFDIWGQGTMVTVSS
# VL: B5 VL with M4L, S30G, D91H, I93H, H94L, Y96I
# B9: BIIB-9-629 (antibody, V domains shown)
# VH: QVQLVQSGAEVKKPGASVKVSCKASGYTFTSYYMHWVRQAPGQGLEWMGVINPSGGSTSYAQKFQGRVTMTRDTSTSTVYMELSSLRSEDTAVYYCARDPSQDYATGTGWFDPWGQGTLVTVSS
# VL: DIQLTQSPSSLSASVGDRVTITCQASQDISNYLNWYQQKPGKAPKLLIYDASNLETGVPSRFSGSGSGTDFTFTISSLQPEDIATYYCQQLDSLPPTFGGGTKVEIK
# B10: BIIB-9-885 (antibody, V domains shown)
# VH: QVQLVQSGAEVKKPGASVKVSCKASGYTFTSYYMHWVRQAPGQGLEWMGIINPSGGSTSYAQKFQGRVTMTRDTSTSTVYMELSSLRSEDTAVYYCAREGPMLDYPTYSNWFDPWGQGTLVTVSS
# VL: EIVLTQSPATLSLSPGERATLSCRASQSVSSYLAWYQQKPGQAPRLLIYDASKRATGIPARFSGSGSGTDFTLTISSLEPEDFAVYYCQQRVIWPPTFGGGTKVEIK
# B11: BIIB-9-433 (antibody, V domains shown)
# VH: QLQLQESGPGLVKPSETLSLTCTVSGGSISSSRYYWGWIRQPPGKGLEWIGSIYYSGSTYYNPSLKSRVTISVDTSKNQFSLKLSSVTAADTAVYYCARDAGYSAELFDYWGQGTLVTVSS
# VL: B10 VL with K53N, R91S, V92S, I93A, W94Y
# B12: BIIB-9-1270 (antibody, V domains shown)
# VH: QVQLVQSGAEVKKPGASVKVSCKASGYTFTSYYMHWVRQAPGQGLEWMGIINPSGGSTSYAQKFQGRVTMTRDTSTSTVYMELSSLRSEDTAVYYCARDTGGYAFDIWGQGTLVTVSS
# VL: B10 VL with K53N, R91S, V92A, I93D, W94F, P96F
# B13: BIIB-9-615 (antibody, V domains shown)
# VH: QVQLVQSGAEVKKPGASVKVSCKASGYTFTSYYMHWVRQAPGQGLEWMGIINPSGGSTSYAQKFQGRVTMTRDTSTSTVYMELSSLRSEDTAVYYCARDSPSSSSYWSLDLWGRGTLVTVSS
# VL: B10 VL with K53N, R91S, V92C, I93H, P96W
# B14: BIIB-9-425 (antibody, V domains shown)
# VH: QVQLVQSGAEVKKPGASVKVSCKASGYTFTSYYMHWVRQAPGQGLEWMGIINPSGGSTSYAQKFQGRVTMTRDTSTSTVYMELSSLRSEDTAVYYCAREPTWDVAYDYWGQGTLVTVS
# VL: EIVLTQSPGTLSLSPGERATLSCRASQSVSSDYLAWYQQKPGQAPRLLIYGASSRATGIPDRFSGSGSGTDFTLTISRLEPEDFAVYYCQQYDSHPYTFGGGTKVEIK
# B15: BIIB-9-587 (antibody, V domains shown)
# VH: QVQLVQSGAEVKKPGASVKVSCKASGYTFTSYYMHWVRQAPGQGLEWMGIINPSGGSTSYAQKFQGRVTMTRDTSTSTVYMELSSLRSEDTAVYYCARGPPGYEYYMDVWGKGTTVTVSS
# VL: B7 VL with D30S, G91A, A93S
# B16: BIIB-9-585 (antibody, V domains shown)
# VH: QLQLQESGPGLVKPSETLSLTCTVSGGSISSSDYYWGWIRQPPGKGLEWIGSIYYSGSTYYNPSLKSRVTISVDTSKNQFSLKLSSVTAADTAVYYCAREVGTYYYGLDFWFDPWGQGTLVTVSS
# VL: B7 VL with D30S, G91A, D92N, A93S, F94Y, F96I
# B17: BIIB-9-1269 (antibody, V domains shown)
# VH: B3 VH with V35H, S99D, P100R, T101G, D102Q, G103Y, Y105H
# VL: B7 VL with T20A, D30S, G91A, D92S, A93S
# B18: BIIB-9-1272 (antibody, V domains shown)
# VH: B12 VH
# VL: B7 VL with D30S, G91A, D92S, A93S
# B19: BIIB-9-590 (antibody, V domains shown)
# VH: B15 VH with G99D, P100Q, P101E, G102W, Y103A, E104Y, Y106G, K112Q
# VL: B10 VL with K53N, R91V, V92D, I93N, W94F, P96L
# B20: BIIB-9-414 (antibody, V domains shown)
# VH: B1 VH with T99D, K100P, W101Y, S103Y, S104G, P105M, G107Y, M108F, V110Y, T116L
# VL: B7 VL with D30S, A93V
# B21: BIIB-9-1279 (antibody, V domains shown)
# VH: QVQLVQSGAEVKKPGASVKVSCKASGYTFTSYYMHWVRQAPGQGLEWMGIINPSGGSTSYAQKFQGRVTMTRDTSTSTVYMELSSLRSEDTAVYYCARGPTDSSGYLDMDVWGKGTTVTVSS
# VL: B7 VL with D30S, G91A, D92S, A93S, F96P
# B22: BIIB-9-1283 (antibody, V domains shown)
# VH: B8 VH
# VL: B7 VL with D30S, G91A, D92S, A93S, F96P
# B23: BIIB-9-1274 (antibody, V domains shown)
# VH: B12 VH
# VL: B7 VL with D30S, G91A, D92N, A93S
# B24: BIIB-9-592 (antibody, V domains shown)
# VH: QLQLQESGPGLVKPSETLSLTCTVSGGSISSNSYYWGWIRQPPGKGLEWIGSIYYSGSTYYNPSLKSRVTISVDTSKNQFSLKLSSVTAADTAVYYCARDSNYDSSGYALYYYGMDVWGQGTTVTVSS
# VL: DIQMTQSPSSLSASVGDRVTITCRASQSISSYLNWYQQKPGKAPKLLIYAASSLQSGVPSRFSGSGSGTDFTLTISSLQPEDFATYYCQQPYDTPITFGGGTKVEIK
# B25: BIIB-9-480 (antibody, V domains shown)
# VH: QVQLQESGPGLVKPSETLSLTCAVSGYSISSGYYWGWIRQPPGKGLEWIGSSYHSGSTYYNPSLKSRVTISVDTSKNQFSLKLSSVTAADTAVYYCARDQQDYGAFDIWGQGTMVTVSS
# VL: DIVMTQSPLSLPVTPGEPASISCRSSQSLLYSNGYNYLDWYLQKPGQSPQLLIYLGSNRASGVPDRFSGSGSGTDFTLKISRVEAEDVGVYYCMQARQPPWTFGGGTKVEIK
# Molecular target: free FIXa (activated Factor IX) (UniProt P00740 47-191; P00740 227-461)
# Test: BLI
row,Kd,Binder
1,16 nM,B1
2,14.2 nM,B2
3,19.8 nM,B3
4,19.6 nM,B4
5,18.6 nM,B5
6,20.1 nM,B6
7,14.4 nM,B7
8,41.2 nM,B8
9,25.6 nM,B9
10,0.804 nM,B10
11,16.4 nM,B11
12,24.2 nM,B12
13,23.2 nM,B13
14,5.46 nM,B14
15,11.8 nM,B15
16,12.4 nM,B16
17,45.1 nM,B17
18,45.6 nM,B18
19,11.3 nM,B19
20,16.6 nM,B20
21,40.9 nM,B21
22,37 nM,B22
23,28.4 nM,B23
24,21.7 nM,B24
25,7.51 nM,B25
